{
  "source": "the RNAGym collection of RNA variant scans (doi:10.1073/pnas.2313332121)",
  "parents": {"B1": {"name": "TPR t1 (parent)", "chain": "GACCAAUCUGCCCUCAGAGCUCGAGAACAUCUUCGGAUGCAGAGGAGGCAGGCUUCGGUGGCGCGAUAGCGCCAACGUCCUCAACCUCCAAUGCAUCCCACCACAUGAUGAUGCCUGAAGAGCCUUGGUUUUUUG"}},
  "data": [
    {"variants_of": "B1", "experiment": "polymerase ribozyme fitness, log enrichment relative to wild type (log ratio); higher = more active; in vitro selection for triplet polymerase activity", "summary_of_the_method": "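Input and output libraries were sequenced on Illumina after a single in vitro selection round, run in triplicate on PCR-built, transcribed mutant libraries of each subunit of a heterodimeric triplet polymerase ribozyme. Selection annealed libraries to a biotinylated primer, the partner subunit and triplets, incubated them frozen at −7 °C, then gel-excised extended constructs for streptavidin-bead capture and RT-PCR. Genotypes with ≥10 input reads and ≥1 read per output were kept. Fitness is the logarithm, taken in base 2, of genotype enrichment divided by wild-type enrichment, using inverse-variance-weighted replicate averages.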", "values": [
      {"variant": "U106A C114A", "polymerase ribozyme fitness (log ratio)": -1.93},
      {"variant": "A105U U133A", "polymerase ribozyme fitness (log ratio)": -1.78},
      {"variant": "G113A U125A", "polymerase ribozyme fitness (log ratio)": -1.24},
      {"variant": "G113U C123U", "polymerase ribozyme fitness (log ratio)": -3.05},
      {"variant": "G113U C123G", "polymerase ribozyme fitness (log ratio)": -1.81},
      {"variant": "U106C U132A", "polymerase ribozyme fitness (log ratio)": -0.182},
      {"variant": "G107C G120U", "polymerase ribozyme fitness (log ratio)": -3.85},
      {"variant": "U109A C115G", "polymerase ribozyme fitness (log ratio)": -7.19},
      {"variant": "G110A G113C", "polymerase ribozyme fitness (log ratio)": -4.78},
      {"variant": "G110C U132A", "polymerase ribozyme fitness (log ratio)": -3.46},
      {"variant": "G110U A118G", "polymerase ribozyme fitness (log ratio)": -1.01},
      {"variant": "C102A U125C", "polymerase ribozyme fitness (log ratio)": -4.05},
      {"variant": "G110A C115G", "polymerase ribozyme fitness (log ratio)": -5.71},
      {"variant": "C102A C114A", "polymerase ribozyme fitness (log ratio)": -4.17},
      {"variant": "A103U G110C", "polymerase ribozyme fitness (log ratio)": -7.11},
      {"variant": "U106G U133G", "polymerase ribozyme fitness (log ratio)": -0.611},
      {"variant": "U106A C114G U133C", "polymerase ribozyme fitness (log ratio)": -2.16},
      {"variant": "G110U U112G", "polymerase ribozyme fitness (log ratio)": -4.22},
      {"variant": "G110U U112A", "polymerase ribozyme fitness (log ratio)": -2.85},
      {"variant": "A105U G127C", "polymerase ribozyme fitness (log ratio)": -2.7},
      {"variant": "G110C G135C", "polymerase ribozyme fitness (log ratio)": -4.01},
      {"variant": "U109C A111C", "polymerase ribozyme fitness (log ratio)": -3.65},
      {"variant": "U109A G117U", "polymerase ribozyme fitness (log ratio)": -5.72},
      {"variant": "C102A C124G", "polymerase ribozyme fitness (log ratio)": 0.0453},
      {"variant": "G110A U125A", "polymerase ribozyme fitness (log ratio)": -2.43},
      {"variant": "U109C C115A", "polymerase ribozyme fitness (log ratio)": -3.11},
      {"variant": "U112A U133G", "polymerase ribozyme fitness (log ratio)": 1.43},
      {"variant": "U112A U133A", "polymerase ribozyme fitness (log ratio)": 1.53},
      {"variant": "A105C A121G", "polymerase ribozyme fitness (log ratio)": 0.5},
      {"variant": "G107A U116C", "polymerase ribozyme fitness (log ratio)": -5.17},
      {"variant": "A105C C115U", "polymerase ribozyme fitness (log ratio)": -4.02},
      {"variant": "U106A U112A U129C", "polymerase ribozyme fitness (log ratio)": 0.363},
      {"variant": "A103U G120A C123U", "polymerase ribozyme fitness (log ratio)": -4.53},
      {"variant": "A111C A119U U125A", "polymerase ribozyme fitness (log ratio)": -4.12},
      {"variant": "U112A A119C", "polymerase ribozyme fitness (log ratio)": -1.25},
      {"variant": "G110C U125A", "polymerase ribozyme fitness (log ratio)": -5.11},
      {"variant": "G107C A121U", "polymerase ribozyme fitness (log ratio)": -3.13},
      {"variant": "C104A G127A", "polymerase ribozyme fitness (log ratio)": -3.1},
      {"variant": "G110A U133A", "polymerase ribozyme fitness (log ratio)": -1.59},
      {"variant": "C102A A111G C115A A118U", "polymerase ribozyme fitness (log ratio)": -4.83},
      {"variant": "U106A U126C", "polymerase ribozyme fitness (log ratio)": -0.645},
      {"variant": "U106A C115U G127U", "polymerase ribozyme fitness (log ratio)": -1.18},
      {"variant": "C104A A118U U125G U130A", "polymerase ribozyme fitness (log ratio)": -3.67},
      {"variant": "C101G G120U U129A", "polymerase ribozyme fitness (log ratio)": -3.12},
      {"variant": "A111C C114A", "polymerase ribozyme fitness (log ratio)": -2.98},
      {"variant": "U106A G135U", "polymerase ribozyme fitness (log ratio)": -0.228},
      {"variant": "C104U G117U", "polymerase ribozyme fitness (log ratio)": -0.481},
      {"variant": "G113A U132C", "polymerase ribozyme fitness (log ratio)": -1.76},
      {"variant": "A103U A111G", "polymerase ribozyme fitness (log ratio)": -3.31},
      {"variant": "C101G U133A", "polymerase ribozyme fitness (log ratio)": -1.55},
      {"variant": "G113C C124G", "polymerase ribozyme fitness (log ratio)": -1.33},
      {"variant": "C101U G117U", "polymerase ribozyme fitness (log ratio)": -1.13},
      {"variant": "C102U U125G", "polymerase ribozyme fitness (log ratio)": -1.4},
      {"variant": "G113C C123A", "polymerase ribozyme fitness (log ratio)": -2.82},
      {"variant": "U112C C124U G128U", "polymerase ribozyme fitness (log ratio)": -0.524},
      {"variant": "G107A A121C", "polymerase ribozyme fitness (log ratio)": -3.64},
      {"variant": "U106G G107A U133A", "polymerase ribozyme fitness (log ratio)": -5.4},
      {"variant": "U106G C123G C124G", "polymerase ribozyme fitness (log ratio)": 1.38},
      {"variant": "C102U G110C", "polymerase ribozyme fitness (log ratio)": -7.27},
      {"variant": "C101U A111C", "polymerase ribozyme fitness (log ratio)": 0.393},
      {"variant": "C102G C104U", "polymerase ribozyme fitness (log ratio)": -6.12},
      {"variant": "C101A U106C U133A", "polymerase ribozyme fitness (log ratio)": -0.867},
      {"variant": "C101A G110U", "polymerase ribozyme fitness (log ratio)": -3.04},
      {"variant": "C104U G120U G135U", "polymerase ribozyme fitness (log ratio)": -0.513},
      {"variant": "G107A G117A", "polymerase ribozyme fitness (log ratio)": -5.11},
      {"variant": "C104U U109G", "polymerase ribozyme fitness (log ratio)": -3.57},
      {"variant": "U112A C124U", "polymerase ribozyme fitness (log ratio)": 1.1},
      {"variant": "U106C U125A", "polymerase ribozyme fitness (log ratio)": -0.83},
      {"variant": "C102A G120A A121C C124U", "polymerase ribozyme fitness (log ratio)": -0.193},
      {"variant": "U106A G128C", "polymerase ribozyme fitness (log ratio)": -2.95},
      {"variant": "A103C G120U", "polymerase ribozyme fitness (log ratio)": -4.69},
      {"variant": "A103C G120A", "polymerase ribozyme fitness (log ratio)": -3.52},
      {"variant": "A105C G117A", "polymerase ribozyme fitness (log ratio)": -5.32},
      {"variant": "U112G U130C", "polymerase ribozyme fitness (log ratio)": 0.265},
      {"variant": "U112G G122A", "polymerase ribozyme fitness (log ratio)": -1.74},
      {"variant": "G110U G120A", "polymerase ribozyme fitness (log ratio)": -2.47},
      {"variant": "C102A U106G", "polymerase ribozyme fitness (log ratio)": -4.52},
      {"variant": "A108G A111C", "polymerase ribozyme fitness (log ratio)": -1.58},
      {"variant": "A103U A119G", "polymerase ribozyme fitness (log ratio)": -4.5},
      {"variant": "C104A A119U", "polymerase ribozyme fitness (log ratio)": -2.35},
      {"variant": "A103U A118U", "polymerase ribozyme fitness (log ratio)": -4.32},
      {"variant": "A103U A118G", "polymerase ribozyme fitness (log ratio)": -5.56},
      {"variant": "U112C U125A", "polymerase ribozyme fitness (log ratio)": 1.63},
      {"variant": "C104U A105C U131C", "polymerase ribozyme fitness (log ratio)": -2.36}
    ]}
  ]
}
